Experimental data as given in US20170291955A1 (AstraZeneca / MedImmune, published 2017).

T1: human HER4 recombinant extracellular domain protein (human, UniProt Q15303 26-651)
T1 construct: extracellular domain
T1 sequence (looked up): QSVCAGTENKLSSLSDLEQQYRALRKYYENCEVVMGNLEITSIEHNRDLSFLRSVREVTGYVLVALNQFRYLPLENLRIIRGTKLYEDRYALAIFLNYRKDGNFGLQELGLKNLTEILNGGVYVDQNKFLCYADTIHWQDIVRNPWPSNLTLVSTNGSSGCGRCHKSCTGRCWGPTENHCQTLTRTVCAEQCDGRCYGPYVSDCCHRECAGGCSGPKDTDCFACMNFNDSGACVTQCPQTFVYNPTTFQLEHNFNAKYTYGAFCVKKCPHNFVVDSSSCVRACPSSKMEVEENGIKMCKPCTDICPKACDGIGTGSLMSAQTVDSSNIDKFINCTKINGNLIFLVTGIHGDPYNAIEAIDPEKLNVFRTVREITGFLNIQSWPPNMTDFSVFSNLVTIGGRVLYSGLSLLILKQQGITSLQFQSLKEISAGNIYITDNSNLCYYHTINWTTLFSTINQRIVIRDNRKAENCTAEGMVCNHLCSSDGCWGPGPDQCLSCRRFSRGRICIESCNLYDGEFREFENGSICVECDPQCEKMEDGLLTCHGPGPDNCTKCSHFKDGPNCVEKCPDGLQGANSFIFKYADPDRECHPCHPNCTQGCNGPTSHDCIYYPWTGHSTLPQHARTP

T2: human FcγRIIb (human, UniProt P31994 43-217)
T2 construct: also called FcgRIIb
T2 sequence (looked up): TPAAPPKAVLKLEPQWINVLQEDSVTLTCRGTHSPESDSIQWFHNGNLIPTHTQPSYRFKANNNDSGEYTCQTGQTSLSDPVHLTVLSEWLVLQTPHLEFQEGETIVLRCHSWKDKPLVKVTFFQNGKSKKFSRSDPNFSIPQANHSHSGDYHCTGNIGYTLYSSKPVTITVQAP

T3: human FcγRIIA (human, UniProt P12318 36-218)
T3 construct: also called FcgRIIa
T3 sequence (looked up): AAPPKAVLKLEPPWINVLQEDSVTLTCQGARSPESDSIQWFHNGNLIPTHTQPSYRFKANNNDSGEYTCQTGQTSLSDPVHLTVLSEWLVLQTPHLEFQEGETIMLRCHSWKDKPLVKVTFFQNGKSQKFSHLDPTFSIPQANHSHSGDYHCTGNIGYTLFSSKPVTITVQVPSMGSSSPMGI

B1: Bs2Ab-39SH (bispecific antibody, human IgG1, kappa)
heavy: not shown
light: DIVMTQTPLSLSVTPGQPASISCKSSQSVFFRSNNKNILAWYLQKPGQPPQLLIYWASSRESGVPDRFSGSGSGTDFTLKISRVEAEDVGVYYCQQYFGSPFTFGPGTKVDIKRTVAAPSVFIFPPSDEQLKSGTASVVCLLNNFYPREAKVQWKVDNALQSGNSQESVTEQDSKDSTYSLSSTLTLSKADYEKHKVYACEVTHQGLSSPVTKSFNRGEC
B2: Bs4Ab-39SH (bispecific antibody)
heavy: not shown
light: B1 light
B3: Bs3Ab-39SH (bispecific antibody, human IgG1, kappa)
heavy: not shown
light: B1 light
B4: Bs2-4T (bispecific antibody, name in EU numbering)
heavy: not shown
light: B1 light
modifications: tubulysin 1508 (Compound T32) on engineered Cys 239 and Cys 442 (EU index), thiol-maleimide linkage
notes: Antibody-drug conjugate, DAR about 4; also called Bs2Ab-4T; Bs2Ab-39SH-(FCC) construct conjugated to 4 tubulysins
B5: Bs4-4T (bispecific antibody)
heavy: not shown
light: B1 light
modifications: tubulysin 1508 (Compound T32) on engineered Cys 239 and Cys 442 (EU index), thiol-maleimide linkage
notes: Antibody-drug conjugate, DAR about 4; also called Bs4Ab-4T; Bs4Ab-39SH-(FCC) conjugated to 4 tubulysins
B6: Bs4Ab-39SH_aFuc (bispecific antibody)
heavy: not shown
light: B1 light
notes: also called afucosylated Bs4Ab-39SH; homogenously afucosylated Bs4Ab-39SH
B7: Bs2Ab-39SH_aFuc (bispecific antibody, human IgG1, kappa)
heavy: not shown
light: B1 light
notes: also called afucosylated Bs2Ab-39SH; homogenously afucosylated Bs2Ab-39SH

target: T4, human EGFR recombinant extracellular domain protein (human, UniProt P00533 25-645); assay: capture ELISA as in Example 1
T4 construct: extracellular domain
Description: (§1) Antibody to be tested was prepared by diluting in a stepwise 1:3 serial dilution ranging from 50 nM down to 0.28 pM and then added to the wells in duplicate. After one hour of incubation, plates were washed, and goat anti-human IgG Fab HRP-conjugated secondary antibody was added to each well and the plates were incubated for 1 hour. The plates were washed and TMB substrate was added and incubated for 5-20 min to allow color development. The stop solution was added to the wells at the end of reaction and the plates were read at 450 nm. Binding signal (absorbance at 450 nm) was plotted against antibody concentration using Prism software.

Row | Binder | binding result
1 | B1 | no binding
2 | B2 | no binding
3 | B3 | no binding
4 | B4 | no binding
5 | B5 | no binding

target: T5, human HER3 recombinant extracellular domain protein (human, UniProt P21860 20-643); assay: capture ELISA as in Example 1
T5 construct: extracellular domain
Description: as §1

Row | Binder | binding result
6 | B1 | no binding
7 | B2 | no binding
8 | B3 | no binding
9 | B4 | no binding
10 | B5 | no binding

target: T1, human HER4 recombinant extracellular …; assay: capture ELISA as in Example 1
Description: as §1

Row | Binder | binding result
11 | B1 | no binding
12 | B2 | no binding
13 | B3 | no binding
14 | B4 | no binding
15 | B5 | no binding

target: T6, human FcγRIIIA-158F (human, UniProt P08637 17-208); assay: SPR, antibody immobilised, receptor injected, steady-state fit (table head: BIAcore; paragraph 688: ProteOn XPR36)
T6 construct: also called FcgRIIIa (158F)
Description: (§2) The binding constants (KD) for the binding of anti-HER2 bispecific antibodies to human FcγRs were measured on a ProteOn XPR36 instrument. Briefly, the bispecific antibodies were immobilized at high density on a GLC sensor chip using a standard amino coupling chemistry as outlined by the instrument manufacturer. The final surface density of IgG measured approximately 3000 RU. A reference flow cell was also prepared on this sensor chip using the identical immobilization protocol minus protein. […] Each concentration of FcγR was injected over both the bispecific antibody and reference cell surfaces at a flow rate of 25 μL/min for 8 min, during which binding data were collected. Between injections, the surfaces were regenerated (i.e., bound FcγR was removed) with a 60-sec pulse of 5 mM HCl. Several buffer injections were also interspersed throughout the injection series. Later, one of these buffer injections along with the reference cell data was used to correct the binding data for any injection artifacts (e.g., nonspecific binding) through a technique commonly referred to as “double-referencing” (Myszka, 1999). After all binding data were collected, individual data sets were averaged for binding (Response at equilibrium [Req]) at each concentration (C), and then fit to a 1:1 binding isotherm (Req vs. C) plot.

T6 sequence (P08637 17-208 limits assumed): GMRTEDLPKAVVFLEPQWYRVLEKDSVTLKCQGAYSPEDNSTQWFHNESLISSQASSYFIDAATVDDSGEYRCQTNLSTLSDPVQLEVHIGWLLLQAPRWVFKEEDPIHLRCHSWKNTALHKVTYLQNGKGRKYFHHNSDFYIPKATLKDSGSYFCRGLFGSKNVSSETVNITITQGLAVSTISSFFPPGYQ

Row | Binder | Kd [nM]
16 | B1 | 1990
17 | B2 | 1780
18 | B6 | 223
19 | B7 | 216

target: T7, human FcγRI (human, UniProt P12314 16-288); assay: as above
T7 construct: also called FcgRI
Description: as §2

T7 sequence (P12314 16-288 limits assumed): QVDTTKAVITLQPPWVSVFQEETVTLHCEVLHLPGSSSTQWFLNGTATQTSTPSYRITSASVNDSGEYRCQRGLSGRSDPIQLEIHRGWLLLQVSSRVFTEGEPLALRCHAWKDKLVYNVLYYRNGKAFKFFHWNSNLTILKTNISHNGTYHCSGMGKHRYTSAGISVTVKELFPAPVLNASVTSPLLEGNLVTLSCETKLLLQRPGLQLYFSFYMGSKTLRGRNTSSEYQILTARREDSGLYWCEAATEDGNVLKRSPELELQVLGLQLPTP

Row | Binder | Kd [nM]
20 | B1 | 7
21 | B2 | 13
22 | B6 | 0.98
23 | B7 | 0.98

target: T8, human FcγRIIIA-158V (human, UniProt P08637 17-208); assay: as above
T8 construct: also called FcgRIIIa (158V); hFcgRIIIA-158V
Description: as §2

T8 sequence (P08637 17-208 F176V limits assumed): as the sequence (P08637 17-208 limits assumed) above, with F160V counted along it

Row | Binder | Kd [nM]
24 | B6 | 45
25 | B7 | 40

target: T2, human FcγRIIb; assay: as above
Description: as §2

Row | Binder | Kd [nM]
26 | B1 | 2750
27 | B2 | 2790
28 | B6 | 2560
29 | B7 | 2400

target: T3, human FcγRIIA; assay: as above
Description: as §2

Row | Binder | Kd [nM]
30 | B1 | 1300
31 | B2 | 1190
32 | B6 | 1260
33 | B7 | 1250

target: C1q (Homo sapiens (Human), UniProt P02745 23-245; P02746 28-253; P02747 29-245); assay: BIAcore per table head; method for C1q not described
Sequence (P02745 23-245 limits assumed, chain 1 of 3): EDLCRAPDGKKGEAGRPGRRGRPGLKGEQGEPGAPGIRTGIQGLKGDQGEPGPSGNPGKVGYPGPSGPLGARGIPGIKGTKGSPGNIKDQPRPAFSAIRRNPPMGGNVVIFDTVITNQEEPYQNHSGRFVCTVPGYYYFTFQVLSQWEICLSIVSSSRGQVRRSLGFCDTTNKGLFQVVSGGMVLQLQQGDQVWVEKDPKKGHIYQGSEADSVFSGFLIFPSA
Sequence (P02746 28-253 limits assumed, chain 2 of 3): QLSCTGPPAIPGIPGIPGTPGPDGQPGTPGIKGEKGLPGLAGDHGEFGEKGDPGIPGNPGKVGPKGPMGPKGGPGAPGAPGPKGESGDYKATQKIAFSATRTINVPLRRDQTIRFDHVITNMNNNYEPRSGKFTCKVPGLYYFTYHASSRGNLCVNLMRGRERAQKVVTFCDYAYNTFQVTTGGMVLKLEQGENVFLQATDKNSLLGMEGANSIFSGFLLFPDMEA
Sequence (P02747 29-245 limits assumed, chain 3 of 3): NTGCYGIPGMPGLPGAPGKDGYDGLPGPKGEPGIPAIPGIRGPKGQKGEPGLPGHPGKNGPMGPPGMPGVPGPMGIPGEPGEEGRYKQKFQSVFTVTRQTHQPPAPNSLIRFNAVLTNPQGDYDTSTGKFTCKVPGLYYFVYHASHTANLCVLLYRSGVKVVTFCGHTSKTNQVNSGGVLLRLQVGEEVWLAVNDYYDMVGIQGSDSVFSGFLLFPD

Row | Binder | Kd [nM]
34 | B1 | 75.6
35 | B2 | 88.6
36 | B6 | 446
37 | B7 | 130
